Numbering of substitutions follows the chain as printed. Like-named read-outs stand apart in the source and are kept apart here.

Assay [1] addresses HLA-DQ2.5 on IHW09023 cells loaded with 33mer gliadin peptide (human; wheat). Briefly: cell-based or functional assay.
Assay [2] deals with HLA-DQ2.5 on IHW09023 cells loaded with omega1/2 gliadin peptide (human; wheat). Briefly: cell-based or functional assay.
Assay [3] deals with HLA-DQ2.5 on IHW09023 cells loaded with BC hordein peptide (human; barley). Nature of the assay: cell-based or functional assay.
Assay [4] concerns the target HLA-DQ2.5 on IHW09023 cells loaded with gamma 1 gliadin peptide (human; wheat). Briefly: cell-based or functional assay.
The target in assay [5] is HLA-DQ2.5 on IHW09023 cells loaded with gamma 2 gliadin peptide (human; wheat). Nature of the assay: cell-based or functional assay.
Assay [6] concerns the target HLA-DQ2.5 on IHW09023 cells loaded with gamma 3 gliadin peptide (human; wheat). Nature of the assay: cell-based or functional assay.
For assay [7], the target named is HLA-DQ2.5 on IHW09023 cells loaded with gamma 4a gliadin peptide (human; wheat). Nature of the assay: cell-based or functional assay.
Assay [8] concerns the target HLA-DQ2.5 on IHW09023 cells loaded with gamma 4d gliadin peptide (human; wheat). Nature of the assay: cell-based or functional assay.
The target in another assay is T1, HLA-DQ5.1 on Ba/F3 cells (human, limits assumed).
T1 construct: whole, on cells; also called Ba/F3-HLA-DQ5.1
T1 MHC II alpha: not shown
T1 MHC II beta: not shown
Nature of the assay: FACS, Ba/F3 cells; raw MFI.

The next assay concerns the target T2, HLA-DQ6.3 on Ba/F3 cells (human, UniProt P01920 33-230, limits assumed).
T2 construct: whole, on cells; also called Ba/F3-HLA-DQ6.3
T2 MHC II alpha: not shown
T2 MHC II beta: not shown
Nature of the assay: FACS, Ba/F3 cells; raw MFI.

The target in a further assay is T3, HLA-DR on Ba/F3 cells (human, UniProt P01903 26-216; P79483 30-227, limits assumed).
T3 construct: whole, on cells; also called Ba/F3-HLA-DR
T3 MHC II alpha: not shown
T3 MHC II beta: not shown
Nature of the assay: FACS, Ba/F3 cells; raw MFI.

Another assay has as its target T4, HLA-DP on Ba/F3 cells (human, UniProt P20036 29-222; P04440 30-225, limits assumed).
T4 construct: whole, on cells; also called Ba/F3-HLA-DP
Briefly: FACS, Ba/F3 cells; raw MFI.

The target of assay [9] is T5, HLA-DQ2.5 on Ba/F3 cells (human, UniProt P01909 24-216, limits assumed).
T5 construct: whole, on cells; MHC class II without fused peptide; also called Ba/F3-HLA-DQ2.5
Nature of the assay: FACS, Ba/F3 cells; %MFI: IC17dK 0, DQN0139bb 100.

Assay [10] has as its target T6, HLA-DQ2.2 on Ba/F3 cells (human, UniProt P01909 24-216, limits assumed).
T6 construct: whole, on cells; also called Ba/F3-HLA-DQ2.2
T6 MHC II alpha: not shown
T6 MHC II beta: not shown
Nature of the assay: FACS, Ba/F3 cells; %MFI: IC17dK 0, DQN0139bb 100.

Assay [11] addresses T7, HLA-DQ7.5 on Ba/F3 cells (human, UniProt P01909 24-216; P01920 33-230, limits assumed).
T7 construct: whole, on cells; also called Ba/F3-HLA-DQ7.5
Briefly: FACS, Ba/F3 cells; %MFI: IC17dK 0, DQN0139bb 100.

The target of assay [12] is T8, HLA-DQ8 on Ba/F3 cells (human, UniProt P01909 24-216; P01920 33-230, limits assumed).
T8 construct: whole, on cells; also called Ba/F3-HLA-DQ8
T8 MHC II alpha: not shown
T8 MHC II beta: not shown
Nature of the assay: FACS, Ba/F3 cells; %MFI: IC17dK 0, DQN0139bb 100.

In assay [13] the target is T9, HLA-DQ7.3 on Ba/F3 cells (human, UniProt P01909 24-216; P01920 33-230, limits assumed).
T9 construct: whole, on cells; also called Ba/F3-HLA-DQ7.3
T9 MHC II alpha: not shown
T9 MHC II beta: not shown
Briefly: FACS, Ba/F3 cells; %MFI: IC17dK 0, DQN0139bb 100.

Assay [14] deals with T5, HLA-DQ2.5 on Ba/F3 cells. Nature of the assay: FACS, Ba/F3 cells; %MFI: IC17dK 0, DQN0139bb 100. The source holds these as a separate data set.
In assay [15] the target is T6, HLA-DQ2.2 on Ba/F3 cells. Briefly: FACS, Ba/F3 cells; %MFI: IC17dK 0, DQN0139bb 100.
Assay [16] deals with T7, HLA-DQ7.5 on Ba/F3 cells. Briefly: FACS, Ba/F3 cells; %MFI: IC17dK 0, DQN0139bb 100. The source holds these as a separate data set.
In assay [17] the target is T8, HLA-DQ8 on Ba/F3 cells. Nature of the assay: FACS, Ba/F3 cells; %MFI: IC17dK 0, DQN0139bb 100.
The target in assay [18] is T9, HLA-DQ7.3 on Ba/F3 cells. Nature of the assay: FACS, Ba/F3 cells; %MFI: IC17dK 0, DQN0139bb 100.

T4 sequence (P20036 29-222 limits assumed, chain 1 of 4, other chains not shown): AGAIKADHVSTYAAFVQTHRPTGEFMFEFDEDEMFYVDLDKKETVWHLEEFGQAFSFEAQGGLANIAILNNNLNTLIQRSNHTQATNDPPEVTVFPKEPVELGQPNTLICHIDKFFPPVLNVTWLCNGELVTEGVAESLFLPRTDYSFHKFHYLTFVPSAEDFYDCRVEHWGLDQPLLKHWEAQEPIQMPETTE
T4 sequence (P04440 30-225 limits assumed, chain 2 of 4, other chains not shown): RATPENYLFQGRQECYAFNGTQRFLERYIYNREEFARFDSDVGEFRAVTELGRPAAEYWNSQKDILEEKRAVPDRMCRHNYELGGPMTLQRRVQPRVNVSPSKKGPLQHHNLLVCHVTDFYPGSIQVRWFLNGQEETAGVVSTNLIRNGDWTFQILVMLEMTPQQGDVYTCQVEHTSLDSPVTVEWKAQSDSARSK

B1: DQN0344H1013/L0620//DQN0385H1352/L0681-F6 (bispecific antibody)
heavy 1: QVQLVESGGGVVQPGRSLRLSCAASGFTFSSAYWMVWVRQAPGQGLEWMGAVYGGSDTTYYAKWTEGRFTISRDTSKNTLYLQMNSLRAEDTAVYYCAREPLNYYYYGELNVWGQGTLVTVSSASTKGPSVFPLAPSSKSTSGGTAALGCLVKDYFPEPVTVSWNSGALTSGVHTFPAVLKSSGLYSLSSVVTVPSSSLGTQTYICNVNHKPSNTKVDKRVEPKSCDKTHTCPPCPAPELRRGPSVFLFPPKPKDTLMISRTPEVTCVVVDVSHEDPEVKFNWYVDGVEVHNAKTKPREEQYNSTYRVVSVLTVLHQDWLNGKEYKCKVSNKALPAPIEKTISKAKGQPREPQVYTLPPSREEMTKNQVSLTCLVKGFYPSDIAVEWESNGQPENNYKTTPPYLDSDGSFFLYSKLTVDKSRWQEGNVFSCSVLHEALHAHYTREELSLSP
light 1: DIQMTQSPSSLSASVGDRVTITCQATENIYSGLAWYQQKPGKAPKLLIYYVSTLAYGIPARFSGSGSGTDFTLTISSLEPEDFAVYYCQTYEDVSAVTFGQGTKVEIKRTVAAPSVFIFPPSDEQLKSGTAEVVCLLNNFYPREAKVQWKVDNALQSGNSEESVTEQDSKDSTYSLSSTLTLSKADYEKHKVYACEVTHQGLSSPVTKSFNRGEC
heavy 2: QVQLVESGGGVVQPGRSLRLSCAASGFEFSEWYFMSWVRQAPGKGLEWVASIDTGSGSIDYAEWVEGRFTISRDNSKNTLYLQMNSLRAEDTAVYYCARDIGIDYNFWGPGTLVTVSSASTKGPSVFPLAPSSKSTSGGTAALGCLVEDYFPEPVTVSWNSGALTSGVHTFPAVLESSGLYSLSSVVTVPSSSLGTKTYICNVNHKPSNTKVDKRVEPKSCDKTHTCPPCPAPELRRGPSVFLFPPKPKDTLMISRTPEVTCVVVDVSHEDPEVKFNWYVDGVEVHNAKTKPREEQYNSTYRVVSVLTVLHQDWLNGKEYKCKVSNKALPAPIEKTISKAKGQPREPQVYTLPPSRKEMTKNQVSLTCLVKGFYPSDIAVEWESNGQPENNYKTTPPYLDSDGSFFLYSKLTVDKSRWQQGNVFSCSVLHEALHAHYTRKELSLSP
light 2: DIQMTQSPSSLSASVGDRVTITCQTTQSISSYLNWYQQKPGQPPKLLIYYASTKAEGIPARFSGSGLGTDFTLTISSLEPEDFAVYYCHYGISKVSFGQGTKVEIKRTVAAPSVFIFPPSDEQLKSGTAKVVCLLNNFYPREAKVQWKVDNALQSGNSKESVTEQDSKDSTYSLSSTLTLSKADYEKHKVYACEVTHQGLSSPVTKSFNRGEC
As to B1, the “IC50 (ng/mL), α1a gliadin TCR, 250 nM 33mer gliadin” value in assay [1] was found to be 0.26 ng/mL. For the same molecule, the “IC50 (ng/mL), α1b gliadin TCR, 250 nM 33mer gliadin” value in assay [1] was 1.13 ng/mL. In addition, in assay [1], the “IC50 (ng/mL), α2 gliadin TCR, 250 nM 33mer gliadin” value came out at 0.38 ng/mL. Besides, the “IC50 (ng/mL), ω1 gliadin TCR, 25 µM ω1/2 gliadin” value in assay [2] is 1.88 ng/mL. In addition, in [2], the “IC50 (ng/mL), ω2 gliadin TCR, 250 nM ω1/2 gliadin” value came out at 0.27 ng/mL. Further, in assay [3], the “IC50 (ng/mL), BC hordein TCR, 250 nM BC hordein” value was 11.6 ng/mL. For the same molecule, the “IC50 (ng/mL), γ1 gliadin TCR, 250 nM γ1 gliadin” value in assay [4] came out at 1.71 ng/mL. Also, the “IC50 (ng/mL), γ2 gliadin TCR, 250 nM γ2 gliadin” value in assay [5] stood at 279 ng/mL. Also, the “IC50 (ng/mL), γ3 gliadin TCR, 100 µM γ3 gliadin” value in assay [6] turned out to be 3.15 ng/mL. Besides, the “IC50 (ng/mL), γ4a gliadin TCR, 25 µM γ4a gliadin” value in assay [7] came to 1730 ng/mL. In assay [8], the “IC50 (ng/mL), γ4d gliadin TCR, 100 µM γ4d gliadin” value was found to be 3.15 ng/mL. Also, the binding result with HLA-DQ5.1 on Ba/F3 cells, with HLA-DQ6.3 on Ba/F3 cells, with HLA-DR on Ba/F3 cells, with HLA-DP on Ba/F3 cells, in the assay with HLA-DQ2.5 on Ba/F3 cells [9] and in the assay with HLA-DQ2.2 on Ba/F3 cells [10] was “no binding (tested: 0.05 micro g/mL)” each time. Besides, the binding result with HLA-DQ7.5 on Ba/F3 cells [11], with HLA-DQ8 on Ba/F3 cells [12] and with HLA-DQ7.3 on Ba/F3 cells [13] was “no binding (tested: 0.05 micro g/mL)” in each case.

B2: DQN0344H1013/L0620//DQN0385H1521/L0605-F6 (bispecific antibody)
heavy 1: B1 heavy 1
light 1: B1 light 1
heavy 2: B1 heavy 2 with E28T, S30E, E31S
light 2: B1 light 2 with L67S
B2: in assay [1], the “IC50 (ng/mL), α1a gliadin TCR, 250 nM 33mer gliadin” value was found to be 0.28 ng/mL. In assay [1], the “IC50 (ng/mL), α1b gliadin TCR, 250 nM 33mer gliadin” value amounted to 1.76 ng/mL. Besides, the “IC50 (ng/mL), α2 gliadin TCR, 250 nM 33mer gliadin” value in assay [1] amounted to 0.33 ng/mL. Besides, in [2], the “IC50 (ng/mL), ω1 gliadin TCR, 25 µM ω1/2 gliadin” value came out at 1.91 ng/mL. In addition, in assay [3], the “IC50 (ng/mL), BC hordein TCR, 250 nM BC hordein” value came out at 8.98 ng/mL. The “IC50 (ng/mL), γ1 gliadin TCR, 250 nM γ1 gliadin” value in [4] was 0.68 ng/mL. In assay [5], the “IC50 (ng/mL), γ2 gliadin TCR, 250 nM γ2 gliadin” value came to 853 ng/mL. Besides, the “IC50 (ng/mL), γ3 gliadin TCR, 100 µM γ3 gliadin” value in [6] turned out to be 1.4 ng/mL. Moreover, in assay [7], the “IC50 (ng/mL), γ4a gliadin TCR, 25 µM γ4a gliadin” value came out at 1350 ng/mL. For the same molecule, in assay [8], the “IC50 (ng/mL), γ4d gliadin TCR, 100 µM γ4d gliadin” value worked out at 13 ng/mL. Besides, the binding result with HLA-DQ5.1 on Ba/F3 cells, in the assay with HLA-DQ6.3 on Ba/F3 cells, with HLA-DR on Ba/F3 cells, with HLA-DP on Ba/F3 cells, with HLA-DQ2.5 on Ba/F3 cells [14] and with HLA-DQ2.2 on Ba/F3 cells [15] was “no binding (tested: 0.05 micro g/mL)” in each case. The binding result in the assay with HLA-DQ7.5 on Ba/F3 cells [16], in the assay with HLA-DQ8 on Ba/F3 cells [17] and with HLA-DQ7.3 on Ba/F3 cells [18] was “no binding (tested: 0.05 micro g/mL)” in each case.

For the origin of these results see patent publication US20240400693A1 (Chugai, published 2024).
